In patent US20220073594A1 (NEWSOARA BIOPHARMA, published 2022):
Changes are numbered by the printed parent chain.

B1: Antibody 37G2 (antibody, V domains shown)
VH: QVQLVQSGAEVKKPGSSVKVSCKASGGTFSSYAITWVRQAPGQGLEWMGGIIPIFGTANFAQKFQGRVTITADESTSTAYMELSSLRSEDTAVYYCAHLGGFADPFDYWGQGTLVTVSS
VL: EIVLTQSPATLSLSPGERATLSCRASQSVSNYLAWYQQKAGQAPRVLIYDAFNRATGIPARFSGSGSGTDFTLTISSLEPEDFAVYYCQQRSNWPPRITFGQGTRLEIK
B2: Antibody 31C2 (antibody, V domains shown)
VH: QVQLVQSGAEVKKPGSSVKVSCKASGGTFSSYAISWVRQAPGQGLEWMGGIIPIFGTTNYAQKFQGRVTITADESTSTAYMELNSLRSEDTAVYYCAGRSAYGDKGYYFDYWGQGTLVTVSS
VL: B1 VL with Y32F, A40P, V46L, F52S, E79Q, R97Q, I98E, R105K, L106V
B3: Antibody 15A7 (antibody, V domains shown)
VH: QVQLVQSGAEVKKPGASVKVSCKASGYTFTSYDINWVRQASGQGLEWMGWMNPNSANPGYAQKFQGRVTMTRNTSISTAFMELSSLRSDDTAVYYCARARVTIHYDILTGYYSNAFDIWGQGTMVAVSS
VL: DIQMTQSPSSLSASVGDRVTITCRASQTISSYLNWYQQKPGKAPKLLIYAASSLQSGVPSRFSGSGSGADFTLTISSLQPEDFATYYCQQSYTTFMYTFGQGTMLEIK

Legend:
SARS-CoV-2 S1 subunit = molecular target: T1, SARS-CoV-2 S1 subunit (SARS-CoV-2, UniProt P0DTC2 16-685); assay: ELISA, coated S1 protein, antibody at 1 ug/mL
T1 construct: domain: S1 subunit
Experimental: (§1) Polystyrene microplates (Corning) were coated overnight with 0.1 or 1 μg/mL of SARS-CoV-2 S, S1 or RBD protein (Sino Biological). After washing with PBS containing 0.2% Tween 20, the plates were blocked using 2% BSA (Sigma Aldrich) in PBST for 1 hour at 37° C. Following washing with PBST, testing antibodies (1 ug/mL) were added to each well and incubated at 37° C. for 1 hour. After washing with PBST, HRP-conjugated goat anti-human IgG antibody was added at the dilution of 1:5000 and incubated at 37° C. for 1 hour. After washing, 3,3′,5,5′-Tetramethylbenzidine (TMB) substrate solution was added to the microplate and incubated at room temperature for 6 min, followed by adding 2M H₂SO₄ to stop the reaction. The absorbance was detected at 450 nm.

[1] = molecular target: SARS-CoV-2 RBD protein (receptor-binding domain of the spike protein) (SARS-CoV-2, UniProt P0DTC2 319-541); assay: ELISA, coated RBD protein, antibody at 1 ug/mL
Experimental: as §1

[2] = molecular target: SARS-CoV-2 spike protein (S protein) (SARS-CoV-2, UniProt P0DTC2 16-1213); assay: ELISA, coated S protein, antibody at 1 ug/mL
Experimental: as §1

Binder	binding result (SARS-CoV-2 S1 subunit)	binding result [1]	binding result [2]
B1	no binding (tested: 1 ug/mL)		
B2	no binding (tested: 1 ug/mL)		
B3	binds	binds	binds
